Experimental data reported in the RNAGym collection of RNA variant scans (doi:10.1093/molbev/msab373).

B1: Azoarcus group I ribozyme (parent)
chain: GUGCCUUGCGCCGGGAAACCACGCAAGGGAUGGUGUCAAAUUCGGCGAAACCUAAGCGCCCGCCCGGGCGUAUGGCAACGCCGAGCCAAGCUUCGGCGCCUGCGCCGAUGAAGGUGUAGAGACUAGACGGCACCCACCUAAGGCAAACGCUAUGGUGAAGGCAUAGUCCAGGGAGUGGCGAAAGUCACACAAACCGG

Variants of: B1
Assay: reverse-splicing fitness (ratio to wild type); higher = more active; in vitro selection; Mg2+ level not given
Outline: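 An in vitro group I ribozyme library with randomized positions was T7-transcribed and gel-purified. In triplicate, 10 pmol RNA in EPPS pH 7.5 was reacted with 50 pmoles of a 30-nt RNA substrate for 1 h at 37 °C across several added MgCl2 levels (1–48 mM), then stopped with EDTA. Products were reverse transcribed from a substrate-complementary primer, PCR-amplified and sequenced (HiSeq 4000). Fitness is a variant's read proportion after selection over that before, normalised to wild type.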

Row | Variant | reverse-splicing fitness
1 | A111C A120C C150G C169A U176G | 0.00561
2 | A111C A120C C150G C169A U176A | 0.00884
3 | A111C A120G A145C C150A U176C | 0.0118
4 | A111C A120G A145C C150A U176G | 0.00357
5 | A111C A120G A145C C150A U176A | 0.0112
6 | A111C A120G A145G C169A U176C | 0.0401
7 | A111C A120G A145G C169A U176G | 0.00458
8 | A111C A120G A145G C169A U176A | 0.0264
9 | A111C A120G A145G C169G | 0.227
10 | A111C A120G A145G C169A | 0.123
11 | A111C A120G A145G C169U | 0.167
12 | A111C A120C C150U C169G U176G | 0.00557
13 | A111C A120C C150U C169G U176A | 0.0124
14 | A111C A120C C150U C169G U176C | 0.0164
15 | A111C A120G A145C C150A C169A U176A | 0.0112
16 | A111C A120G A145C C150A C169A U176C | 0.00698
17 | A111C A120G A145C C150A C169A U176G | 0.0054
18 | A111C A120C A145U U176A | 0.222
19 | A111C A120C A145U U176G | 0.0519
20 | A111C A120C A145U U176C | 0.215
21 | A111C A120C C169G U176A | 0.0157

Row | Variant | reverse-splicing fitness
22 | A111C A120C C169G U176C | 0.021
23 | A111C A120C C169G U176G | 0.00524
24 | A111C A120C C169A U176A | 0.0152
25 | A111C A120C C169A U176C | 0.0161
26 | A111C A120C C169A U176G | 0.00631
27 | A111C A120G A145G C150A C169A | 0.02
28 | A111C A120G A145G C150A C169U | 0.0326
29 | A111C A120G A145G C150A C169G | 0.0313
30 | A111C A120G A145U C150G C169G U176G | 0.00412
31 | A111C A120G A145U C150G C169G U176A | 0.00713
32 | A111C A120G A145U C150G C169G U176C | 0.00574
33 | A111C A120G C150G C169U U176A | 0.00966
34 | A111C A120G C150G C169U U176C | 0.0154
35 | A111C A120G C150G C169U U176G | 0.00441
36 | A111C A120G A145C C150G C169A U176C | 0.00838
37 | A111C A120G A145C C150G C169A U176G | 0.0045
38 | A111C A120G A145C C150G C169A U176A | 0.00964
39 | A111C A120G A145C C150U C169G U176G | 0.00474
40 | A111C A120G A145C C150U C169G U176A | 0.0253
41 | A111C A120G A145C C150U C169G U176C | 0.0221
42 | A111C A120G A145C C150U C169A U176C | 0.011

Row | Variant | reverse-splicing fitness
43 | A111C A120G A145C C150U C169A U176G | 0.00455
44 | A111C A120G A145C C150U C169A U176A | 0.0104
45 | A111C A120G A145C C169G U176G | 0.00459
46 | A111C A120G A145C C169G U176C | 0.0399
47 | A111C A120G A145C C169G U176A | 0.0348
48 | A111C A120G A145C C169G | 0.201
49 | A111C A120G A145C C169U | 0.146
50 | A111C A120G A145C C169A | 0.0989
51 | A111C A120C C150A C169U | 0.0222
52 | A111C A120C C150A C169A | 0.00999
53 | A111C A120C C150A C169G | 0.00716
54 | A111C A120G A145G C150G U176A | 0.00942
55 | A111C A120G A145G C150G U176C | 0.0155
56 | A111C A120G A145G C150G U176G | 0.00613
57 | A111C A120C C150G C169U U176A | 0.00759
58 | A111C A120C C150G C169U U176G | 0.00523
59 | A111C A120C C150G C169U U176C | 0.014
60 | A111C A120G A145C C150A C169G U176C | 0.0161
61 | A111C A120G A145C C150A C169G U176A | 0.024
62 | A111C A120G A145C C150A C169G U176G | 0.00527
63 | A111C A120C A145U C169U U176G | 0.00761

Row | Variant | reverse-splicing fitness
64 | A111C A120C A145U C169U U176C | 0.0445
65 | A111C A120C A145U C169U U176A | 0.035
66 | A111C A120G U176C | 0.0417
67 | A111C A120G U176A | 0.0401
68 | A111C A120G U176G | 0.00629
69 | A111C A120G C169G U176A | 0.0304
70 | A111C A120G C169G U176G | 0.00449
71 | A111C A120G C169G U176C | 0.0444
72 | A111C A120G C150A C169G U176A | 0.0175
73 | A111C A120G C150A C169G U176C | 0.0245
74 | A111C A120G C150A C169G U176G | 0.00531
75 | A111C A120G A145U | 0.179
76 | A111C A120G A145G | 0.189
77 | A111C A120G A145C | 0.149
78 | A111C A120C C150U C169U U176A | 0.0275
79 | A111C A120C C150U C169U U176C | 0.0327
80 | A111C A120C C150U C169U U176G | 0.0066
81 | A111C A120G A145U C150U U176G | 0.00526
82 | A111C A120G A145U C150U U176C | 0.0338
83 | A111C A120G A145U C150U U176A | 0.0265
